Assay results published in US20200392203A1 (YEDA RESEARCH AND DEVELOPMENT, published 2020).

T1: native spike complex (glycoprotein complex, GPC) of Machupo virus (MACV) (Machupo virus (MACV), UniProt Q6IUF7 2-496)
T1 sequence: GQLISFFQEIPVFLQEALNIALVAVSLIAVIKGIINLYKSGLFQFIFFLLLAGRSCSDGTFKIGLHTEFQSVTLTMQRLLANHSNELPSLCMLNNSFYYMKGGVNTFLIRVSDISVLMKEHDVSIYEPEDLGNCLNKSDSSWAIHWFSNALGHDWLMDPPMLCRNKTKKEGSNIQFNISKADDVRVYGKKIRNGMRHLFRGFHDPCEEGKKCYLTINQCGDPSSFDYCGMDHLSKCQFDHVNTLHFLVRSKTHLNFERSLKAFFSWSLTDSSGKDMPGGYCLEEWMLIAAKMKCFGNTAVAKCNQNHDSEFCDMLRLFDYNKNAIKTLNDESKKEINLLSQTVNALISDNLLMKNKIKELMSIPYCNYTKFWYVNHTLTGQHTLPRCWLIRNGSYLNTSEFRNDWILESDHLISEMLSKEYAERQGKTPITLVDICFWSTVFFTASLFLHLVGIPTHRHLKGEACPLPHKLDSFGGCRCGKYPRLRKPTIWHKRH

B1: soluble apical domain (sAD) of Neotoma albigula (White-throated woodrat) TfR1 (receptor)
chain: GSKIQVKCSAPNSVTITNASGGLYLVEYPEGYVAYSKATEVTGKLVHANFGTKKDFEDLDYAVNGSIVIVRAGKITIAEKVANAQSFNAIGVLIYKDRTKYPISRADEPLQGHSGLPSIPVQTISREAAEKLFQNMERDCPRSWNTDSSCKLELLQNRNVKLTVNNCLKE

Tests used:
[1] = molecular target: native spike complex (glycoprotein complex, GPC) of Sabia virus (SABV) (Sabia virus (SABV)); assay: cell-based or functional assay
[2] = molecular target: native spike complex (glycoprotein complex, GPC) of Junin virus (JUNV) (Junin virus (JUNV)); assay: cell-based or functional assay
[3] = molecular target: GP1SBOV-Fc (GP1 domain of Sabia virus fused at its C' terminus to an antibody Fc portion) (Sabia virus (SABV)); assay: SPR (Biacore T200), single-cycle kinetics; […]; 1:1 model fit
[4] = molecular target: T1, native spike complex (glycoprotein …); assay: cell-based or functional assay
[5] = molecular target: GP1JUNV-Fc (GP1 domain of Junin virus fused at its C' terminus to an antibody Fc portion) (Junin virus (JUNV)); assay: SPR (Biacore T200), single cycle kinetics; […]; 1:1 model
[6] = molecular target: GP1MACV-Fc (GP1 domain of Machupo virus fused at its C' terminus to an antibody Fc portion) (Machupo virus (MACV)) (UniProt Q6IUF7); assay: as above

Molecule	IC50 values (µg/ml), neutralization of pseudotyped virus [1] [µg/mL]	IC50 values (µg/ml), neutralization of pseudotyped virus [2] [µg/mL]	Kd [3] [nM]	pseudovirus neutralisation, IC50 (read off the curve) [4] [nM]	Kd [5] [nM]	Kd [6] [nM]
Arenacept (sAD fused at its C'-terminus to an Fc portion of IgG1) (Fc fusion)	3.5	2.4				
B1			63	~10	1000	4
